Patent US20240409647A1 (SINOMAB BIOSCIENCE, published 2024)

T1: human IL-33 (R&D systems) (human, UniProt O95760 112-270)
T1 sequence (looked up): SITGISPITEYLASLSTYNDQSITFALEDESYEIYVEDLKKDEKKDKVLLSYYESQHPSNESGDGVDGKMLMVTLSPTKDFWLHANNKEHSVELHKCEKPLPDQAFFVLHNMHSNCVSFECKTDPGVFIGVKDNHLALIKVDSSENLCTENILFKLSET


Experiments:
[1] = target: T2, human TSLP (R&D systems) (human, UniProt Q969D9 29-159); assay: BLI (Octet RED96), binder captured via anti-human Fab CH1, TSLP in solution
T2 construct: also called thymic stromal lymphopoietin
Method: (§1) Biosensors immobilized with irrelevant antibody (SM03, anti-human CD22 chimeric IgG1 antibody, SinoMab BioScience Limited, 20 μg/mL) were used as control reference.

[2] = target: T1, human IL-33 (R&D systems); assay: BLI (Octet RED96), binder captured via anti-human Fab CH1, IL33 in solution
Method: as §1

Row | Binder | Kd [1] | koff [1] | kon [1] | Kd [2] | koff [2] | kon [2]
1 | SM17-anti IL-33 2# bsBp (bispecific antibody, human IgG4 S228P, kappa, SM17 IgG with an anti-IL-33 scFv fused to the C-terminus of each heavy chain) heavy: not shown light: DIQMTQSPSSLSASVGDRVTITCRASENINSNLAWYQQKPGKAPKLLLYDVTNLADGVPSRFSGSGSGTDYTLTISSLQPEDFATYYCQHFWGPPYTFGGGTKVEIKRTVAAPSVFIFPPSDEQLKSGTASVVCLLNNFYPREAKVQWKVDNALQSGNSQESVTEQDSKDSTYSLSSTLTLSKADYEKHKVYACEVTHQGLSSPVTKSFNRGEC |  |  |  | < 0.0259 nM | < 1e-07 s⁻¹ | 37300 M⁻¹ s⁻¹
2 | SM17-anti IL-33 1# bsBp (bispecific antibody, human IgG4 S228P, kappa, SM17 IgG with an anti-IL-33 scFv fused to the C-terminus of each heavy chain) heavy: not shown light: DIQMTQSPSSLSASVGDRVTITCRASENINSNLAWYQQKPGKAPKLLLYDVTNLADGVPSRFSGSGSGTDYTLTISSLQPEDFATYYCQHFWGPPYTFGGGTKVEIKRTVAAPSVFIFPPSDEQLKSGTASVVCLLNNFYPREAKVQWKVDNALQSGNSQESVTEQDSKDSTYSLSSTLTLSKADYEKHKVYACEVTHQGLSSPVTKSFNRGEC |  |  |  | 28.9 nM | 0.000283 s⁻¹ | 9810 M⁻¹ s⁻¹

Second part, the binder after the results:

Row | Kd [1] | koff [1] | kon [1] | Kd [2] | koff [2] | kon [2] | Binder
3 | 0.511 nM | 0.000241 s⁻¹ | 472000 M⁻¹ s⁻¹ |  |  |  | SM17-anti TSLP 1# bsBp (bispecific antibody, human IgG4 S228P, kappa, SM17 IgG with an anti-TSLP scFv fused to the C-terminus of each heavy chain; expressed in ExpiCHO-S cells) heavy: not shown light: DIQMTQSPSSLSASVGDRVTITCRASENINSNLAWYQQKPGKAPKLLLYDVTNLADGVPSRFSGSGSGTDYTLTISSLQPEDFATYYCQHFWGPPYTFGGGTKVEIKRTVAAPSVFIFPPSDEQLKSGTASVVCLLNNFYPREAKVQWKVDNALQSGNSQESVTEQDSKDSTYSLSSTLTLSKADYEKHKVYACEVTHQGLSSPVTKSFNRGEC
4 |  |  |  | ≤ 0.0425 nM | < 1e-07 s⁻¹ | 22700 M⁻¹ s⁻¹ | SM17-anti IL-33 3# bsBp (bispecific antibody, human IgG4 S228P, kappa, SM17 IgG with an anti-IL-33 scFv fused to the C-terminus of each heavy chain) heavy: not shown light: DIQMTQSPSSLSASVGDRVTITCRASENINSNLAWYQQKPGKAPKLLLYDVTNLADGVPSRFSGSGSGTDYTLTISSLQPEDFATYYCQHFWGPPYTFGGGTKVEIKRTVAAPSVFIFPPSDEQLKSGTASVVCLLNNFYPREAKVQWKVDNALQSGNSQESVTEQDSKDSTYSLSSTLTLSKADYEKHKVYACEVTHQGLSSPVTKSFNRGEC
5 | < 0.001 nM | < 1e-07 s⁻¹ | 374000 M⁻¹ s⁻¹ |  |  |  | SM17-anti TSLP 2# bsBp (bispecific antibody, human IgG4 S228P, kappa, SM17 IgG with an anti-TSLP scFv fused to the C-terminus of each heavy chain; also called SM17-anti-TSLP bsBp 2 #) heavy: not shown light: DIQMTQSPSSLSASVGDRVTITCRASENINSNLAWYQQKPGKAPKLLLYDVTNLADGVPSRFSGSGSGTDYTLTISSLQPEDFATYYCQHFWGPPYTFGGGTKVEIKRTVAAPSVFIFPPSDEQLKSGTASVVCLLNNFYPREAKVQWKVDNALQSGNSQESVTEQDSKDSTYSLSSTLTLSKADYEKHKVYACEVTHQGLSSPVTKSFNRGEC
